Literature values, collected in patent US20220089455A1, “METHOD FOR PRODUCING NANOPARTICLE HAVING METAL PARTICLE WHICH CONTAINS IRON OXIDE TO WHICH ONE OR MORE HYDROPHILIC LIGANDS ARE COORDINATION BONDED” (ASTELLAS PHARMA INC., priority 2018, published 2022).

Conditions: standard used for SEC comparison

B1: ovalbumin (protein, UniProt P01012 2-386, looked up)
Ovalbumin: GSIGAASMEFCFDVFKELKVHHANENIFYCPIAIMSALAMVYLGAKDSTRTQINKVVRFDKLPGFGDSIEAQCGTSVNVHSSLRDILNQITKPNDVYSFSLASRLYAEERYPILPEYLQCVKELYRGGLEPINFQTAADQARELINSWVESQTNGIIRNVLQPSSVDSQTAMVLVNAIVFKGLWEKAFKDEDTQAMPFRVTEQESKPVQMMYQIGLFRVASMASEKMKILELPFASGTMSMLVLLPDEVSGLEQLESIINFEKLTEWTSSNVMEERKIKVYLPRMKMEEKYNLTSVLMAMGITDVFSSSANLSGISSAESLKISQAVHAAHAEINEAGREVVGSAEAGVDAASVSEEFRADHPFLFCIKHIATNAVLFFGRCVSP
  particle diameter of the standard: 6.1 nm
